± gives the standard deviation of the averaged measurements.
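Further: ATP exposure 15 min at 22 °C before imaging.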

This series concerns ATP. Nature of the series: switch fluorescence ratio, 500 uM ATP over buffer (Cy3 cluster intensity, sum of 5 cycles each) (fold (ratio)); higher = stronger signal-on switching upon ATP binding; sequences stand for … in TCGTCGGCAGCGTCAGATGTGTATAAGAGACAGTTTTTTTTTTTTTTTTTTTTTTTTT…TC. To be noted: aptamer strand: ATP DNA aptamer (quencher-CACCTGGGGGAGTATTGCGGAGGAAGG + anchor), 100 nM annealed; ATP concentration: 500 uM. The essentials: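 After annealing to 100 nM quencher-labelled ATP aptamer, Cy3-labelled switching-strand clusters on a modified Illumina MiSeq flow-cell were imaged in selection buffer. A second image followed after 15 min with 500 uM ATP at 22 °C, and five such buffer/ATP cycles were done, each separated by NaOH stripping and re-annealing. The fluorescence ratio, averaged per switch-domain sequence, is summed target-cycle over summed buffer-cycle Cy3 intensity per cluster, with clusters outside 100-1000 RFU excluded.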
Take ACAAACCACC: the switch fluorescence ratio was found to be 1.34 ± 0.057.
Take CAGTTGCTGA: the switch fluorescence ratio stood at 0.999 ± 0.011.
With TCGGTATGAG, the switch fluorescence ratio was found to be 0.9698 ± 0.0027.
On to TTTTTATCTA, for which the switch fluorescence ratio turned out to be 1.01 ± 0.036.
Take GAGTTTTTGT: the switch fluorescence ratio was 1.01 ± 0.017.
As for AGAAAAGTGT, the switch fluorescence ratio is 1.0276 ± 0.00047.
The result for TAAGGAGTTC reads 0.965 ± 0.021; that for GCTAAAACAT, 1.0086 ± 0.00063; that for ATGAGGGCTA, 0.983 ± 0.044.
For TTTTTACGGT the value was 1.1 ± 0.15; for AAGGGGGGTA, 0.997 ± 0.037.
On to TTGCTGGATT, for which the switch fluorescence ratio was 1 ± 0.033.
Regarding TGGGTAATTG, the switch fluorescence ratio is 1.01 ± 0.019.
Regarding GGCGGGGAAA, the switch fluorescence ratio was found to be 0.981 ± 0.045.
Consider CGTCTAAGGT, for which the switch fluorescence ratio is 0.98 ± 0.044.
Take AGTCGACTGT: the switch fluorescence ratio was found to be 0.956 ± 0.02.
The result for ATAGGCGGGA reads 0.9932 ± 0.00079.
As to ATCTTTGCTA, the switch fluorescence ratio was found to be 1 ± 0.036.
With TCCGATTGGG, the switch fluorescence ratio was 0.9801 ± 0.0071.
Turning to CATATAATTC, the switch fluorescence ratio amounted to 0.975 ± 0.042.
For the sequence TTCACTTTTT, the switch fluorescence ratio was determined as 1 ± 0.012.
CGTTGGTTTT: the switch fluorescence ratio amounted to 1.04 ± 0.02.
For GTTGGATTTC, the switch fluorescence ratio stood at 1.01 ± 0.047.
For the sequence AGAAGCCCAC, the switch fluorescence ratio was 1.09 ± 0.019.
For ATCAGCGTTT, the switch fluorescence ratio was found to be 1.012 ± 0.0092.
As to TATCGGTTGG, the switch fluorescence ratio stood at 1.044 ± 0.0086.
Take AGGGATAGTT: the switch fluorescence ratio was determined as 0.992 ± 0.0047.
GATTCAAACG: the switch fluorescence ratio is 1.006 ± 0.0073.
As for TTTGTAAGTA, the switch fluorescence ratio is 1 ± 0.013.
For the sequence TCCCAAACAT, the switch fluorescence ratio amounted to 1.06 ± 0.009.
As to GGTGGGGTGC, the switch fluorescence ratio came to 1.01 ± 0.046.
For the sequence AAGGCCGGAA, the switch fluorescence ratio worked out at 1.04 ± 0.025.
As for TGGATTAGAG, the switch fluorescence ratio stood at 0.9672 ± 0.0022.
CGGGATATAA: the switch fluorescence ratio is 0.989 ± 0.022.
The result for TAGGTTAGTG reads 0.951 ± 0.01; that for GGGGGGGTAT, 1.01 ± 0.036; that for CGAAGGATCT, 1.02 ± 0.019.
For AGGTGAGGGT the value was 1.022 ± 0.0047.
Turning to TCGTTTGAGT, the switch fluorescence ratio turned out to be 0.997 ± 0.021.
For the sequence GCTGAAATTT, the switch fluorescence ratio was 1.01 ± 0.056.
As to TTTTTCATGT, the switch fluorescence ratio was found to be 0.997 ± 0.044.
The result for ACGATGAAGG reads 1.01 ± 0.021; that for TAGTCTATCG, 0.969 ± 0.025.
Consider TTGTTCAAAA, for which the switch fluorescence ratio worked out at 1.03 ± 0.025.
With GGGCCTGTGA, the switch fluorescence ratio was determined as 1 ± 0.03.
For CATCTCCCTG, the switch fluorescence ratio is 1.06 ± 0.016.
For GAGGTTTTTG the value was 0.994 ± 0.032; for CCTGGGGCTT, 1.03 ± 0.033.
The result for TGGTTTAGGG reads 0.981 ± 0.026; that for CCGGGTTGTA, 1.02 ± 0.046; that for AAAAGATTGT, 1.043 ± 0.0085.
As to GAATGTGGGT, the switch fluorescence ratio stood at 0.994 ± 0.013.
AAGGTAATGG: the switch fluorescence ratio was found to be 1.02 ± 0.014.
Take AGGGTATTCG: the switch fluorescence ratio was 0.9981 ± 0.0049.
In the case of GAGAGGATAG, the switch fluorescence ratio was determined as 0.98157 ± 0.0003.
The result for GTGCGCATGG reads 1.13 ± 0.067; that for GGTTTTGATC, 0.972 ± 0.047; that for GATACGTAGG, 1.009 ± 0.0049.
For the sequence ACGTTGCTAA, the switch fluorescence ratio worked out at 1.0246 ± 0.00021.
The result for ATGCGAGCAA reads 1.11 ± 0.019; that for CATTATACAT, 1.01 ± 0.023; that for GGATACGGGC, 1.02 ± 0.079.
The result for GGTTTTATGG reads 0.988 ± 0.027.
Regarding TTGTAGTATC, the switch fluorescence ratio turned out to be 1 ± 0.025.
For GACACAGTGT the value was 0.98 ± 0.026; for AATTAACTTT, 0.985 ± 0.023; for AAGGGAACTC, 1.03 ± 0.02.
As for AGATTTGTCG, the switch fluorescence ratio was determined as 0.993 ± 0.068.
Regarding CGGGATTATG, the switch fluorescence ratio turned out to be 1.01 ± 0.052.
For TTTAGGGTCG, the switch fluorescence ratio stood at 1.007 ± 0.0016.
Consider TGTGTCGCGT, for which the switch fluorescence ratio was 0.983 ± 0.02.
With GAGGGCATTT, the switch fluorescence ratio was 0.985 ± 0.02.
Take GGGGGGGTTT: the switch fluorescence ratio was 1.01 ± 0.074.
For the sequence AGTTATTGTG, the switch fluorescence ratio was found to be 1.04 ± 0.094.
Consider GGGGCTTGGC, for which the switch fluorescence ratio was 0.999 ± 0.031.
For ATGTGATCGC, the switch fluorescence ratio is 0.986 ± 0.042.
For GCGGATTTGT, the switch fluorescence ratio is 0.998 ± 0.038.
The result for TTCGACTTCG reads 0.9903 ± 0.0063; that for AGCATTTAGG, 1.02 ± 0.035.
In the case of TGTTAAATGG, the switch fluorescence ratio stood at 0.962 ± 0.014.
With TTGAACTTGT, the switch fluorescence ratio is 1.03 ± 0.028.
On to CGGTTGACGT, for which the switch fluorescence ratio turned out to be 1.01 ± 0.013.
For TATTTTGTTT the value was 0.99 ± 0.014; for GGCGGTATAT, 0.99 ± 0.027.
The result for GCTTATCTAA reads 0.997 ± 0.016.
Regarding TTTTCGTGGT, the switch fluorescence ratio was 0.984 ± 0.017.
For CGTGTATATC, the switch fluorescence ratio stood at 1.07 ± 0.028.
For GGGATTCTTA the value was 0.996 ± 0.021; for CGTCATGATG, 1 ± 0.029; for CTGGATCCTT, 1.05 ± 0.017.
On to TGAAGTCGCT, for which the switch fluorescence ratio worked out at 1.02 ± 0.0048.
For the sequence GAATGGAGCC, the switch fluorescence ratio turned out to be 0.995 ± 0.022.
For AGAGGCTTTT the value was 1.02 ± 0.046; for TATTTAAACG, 1 ± 0.011; for TTTTTAATAC, 1.33 ± 0.29.
Consider TAAAAGTTTT, for which the switch fluorescence ratio was determined as 1.01 ± 0.011.
As to TTATGTAGGT, the switch fluorescence ratio was 0.9798 ± 0.007.
The result for CAGGGGCGCA reads 1 ± 0.075.
Turning to ATGCATTTTT, the switch fluorescence ratio turned out to be 1.02 ± 0.043.
Turning to TTACGACCGG, the switch fluorescence ratio was found to be 1.01 ± 0.032.
Consider TACGTGTTTG, for which the switch fluorescence ratio turned out to be 1.01 ± 0.033.
Consider GGATAGAGCT, for which the switch fluorescence ratio is 1 ± 0.034.
Regarding GAAAAACCTT, the switch fluorescence ratio is 3.83 ± 1.6.
Turning to CGTTTCAAGA, the switch fluorescence ratio is 0.9759 ± 0.0019.
As to TTCACTGGGC, the switch fluorescence ratio amounted to 1.01 ± 0.0013.
For TGGGGGGCTT the value was 0.989 ± 0.023; for TAAATGTGTA, 1.01 ± 0.036; for TTGGTTGGAA, 1 ± 0.072.
For TATTAAGTAG, the switch fluorescence ratio was determined as 1.03 ± 0.038.
The result for TAGGCTGATA reads 1.01 ± 0.029; that for AGGGCCGTAT, 1.04 ± 0.056; that for TCGGTGTGCG, 1.03 ± 0.033.
On to CATGGGGTCT, for which the switch fluorescence ratio was 1.03 ± 0.05.
Regarding TATAATGGCT, the switch fluorescence ratio stood at 0.9555 ± 0.0054.
Turning to GCGGTATTCT, the switch fluorescence ratio was 1.001 ± 0.0042.
GCCGGGGTGC: the switch fluorescence ratio is 1.06 ± 0.028.
For TATGGGATTG, the switch fluorescence ratio was determined as 0.998 ± 0.021.
Turning to AAGGTCGGGT, the switch fluorescence ratio was found to be 1.01 ± 0.043.
With CAGGGGTTGA, the switch fluorescence ratio was determined as 0.987 ± 0.035.
For CGTTACGCGC the value was 1 ± 0.023.
